Consider 2 molecules from paper PMC8458794 (Protein & Cell, 2021).

Some results are limits rather than exact numbers.

The target of assay [1] is recombinant S-ECD of SARS-CoV (Severe acute respiratory syndrome …, UniProt P59594). Briefly: cell-based or functional assay.
The target in assay [2] is T1, Avi-tagged SARS-CoV-2 RBD, biotinylated (Severe acute respiratory syndrome …, UniProt P0DTC2, biotin (BirA biotinylation of the Avi tag)).
T1 construct: also called biotinylated RBD protein of SARS-CoV-2
Briefly: BLI. As to conditions: both partners purified.

In assay [3] the target is recombinant SARS-CoV-2 RBD protein (wild type) (SARS-CoV-2, UniProt P0DTC2). Briefly: ELISA. As to conditions: both partners purified.

B1: XG014 monoclonal antibody (IgG) (antibody, V domains shown)
VH: EVQLVQSGAEVKKPGESLKISCKGSGYSFSNYWIGWVRHMPGKGLEWMGIIYPGDSDTRYSPSFQGQVTISVDTSISTAYLQWSSLKASDTAMYYCTRHQYGYNYGYFYYYIDVWGKGTTVTVSS
VL: QSVLTQPPSVSAAPGQKVTISCSGSSSNIGNNPVSWYRQVPGTAPKLLIYDNNKRPSGIPDRFSGSKSGASATLGITGLQTGDEADYYCGTWHTSLSSGVFGGGTKLTVL
A word on the Kd: it is the constant that tells how readily two partners part at equilibrium. A low value points to a tighter complex. Consider B1, for which the “IC50 of neutralisation of SARS-CoV pseudovirus in Huh-7 cells” value in assay [1] worked out at 0.016 mg/L. In assay [2], this molecule returned a Kd of less than 1 pM.

B2: XG005 monoclonal antibody (IgG) (antibody, V domains shown)
VH: QVTLRESGPTLVKPKQTLTLTCTFSGFSLSTPGGGVGWIRQPPGKALEWLALIYWDDDKRYSPSLKSSLTITKDTSKNQVVLTMTNMDPVDTATYYCARLTAADTIFDCWGQGTLVTVSS
VL: QSALTQPASVSGSPGLSITISCTATSSDVGAYNYVSWYQQHPGQAPKLMIYDVSKRPSGVSNRFSGSKSANTASLTISGLQAEDEADYYCSSYTTTSVVFGGGTKLTVL
Regarding B2, the binding result in assay [3] is recorded as “binds”.
